Drawing on patent US20200140543A1 (Memorial Sloan Kettering, published 2020), this text covers Kd, koff and kon for two molecules.

The target of the test is T1, Recombinant human A33 protein (human, UniProt Q99795 22-235, limits assumed).
T1 construct: Bought protein, immobilized on the sensor chip by amine coupling; also called human A33 antigen; A33 glycoprotein antigen
T1 sequence (looked up): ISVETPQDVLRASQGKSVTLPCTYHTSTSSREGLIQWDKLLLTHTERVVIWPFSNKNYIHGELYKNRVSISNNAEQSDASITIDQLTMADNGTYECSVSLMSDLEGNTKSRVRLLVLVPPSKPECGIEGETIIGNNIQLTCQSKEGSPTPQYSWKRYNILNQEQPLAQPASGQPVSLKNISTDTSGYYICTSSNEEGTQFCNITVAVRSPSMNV
As to the kind of experiment: SPR, Biacore T100; A33 immobilized by amine coupling, antibody as analyte, bivalent analyte model. How it is done: Binding affinity was measured by Biacore T100.
Biacore T100 Biosensor, CMS sensor chip, and related reagents were purchased from GE Healthcare. Recombinant human A33 protein was purchased from Novoprotein. A BSA-(Y)-DOTA-Bn conjugate was prepared as described (Cheal et al., supra). A33 and DOTA antigens were immobilized using the Amino Coupling kit (GE Healthcare). Purified bispecific antibodies and control antibodies were analyzed, and data were fit to a bivalent analyte model using the Biacore T100 evaluation software as described (Cheal et al., supra).
Background: SPR reads the build-up and loss of mass on a sensor chip optically.

B1: huA33-C825 bispecific antibody (humanized A33 IgG1-murine C825 scFv) (bispecific antibody)
heavy: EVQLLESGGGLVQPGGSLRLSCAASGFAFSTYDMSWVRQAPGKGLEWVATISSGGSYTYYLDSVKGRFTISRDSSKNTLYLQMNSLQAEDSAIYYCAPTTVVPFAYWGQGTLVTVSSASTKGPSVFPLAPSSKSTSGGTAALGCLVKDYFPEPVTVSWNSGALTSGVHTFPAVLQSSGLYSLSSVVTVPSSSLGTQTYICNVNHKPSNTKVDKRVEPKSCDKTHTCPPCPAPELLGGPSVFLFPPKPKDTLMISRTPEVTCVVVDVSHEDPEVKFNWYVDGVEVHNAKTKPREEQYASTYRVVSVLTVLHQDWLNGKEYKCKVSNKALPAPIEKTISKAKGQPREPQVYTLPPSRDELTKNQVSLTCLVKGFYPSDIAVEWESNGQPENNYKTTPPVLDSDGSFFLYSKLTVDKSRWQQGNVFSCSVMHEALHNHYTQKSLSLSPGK
light: DIQMTQSPSSLSVSVGDRVTITCKASQNVRTVVAWYQQKPGLAPKTLIYLASNRHTGVPSRFSGSGSGTDFTFTISSLQPEDIATYFCQQHWSYPLTFGQGTKVEVKRTVAAPSVFIFPPSDEQLKSGTASVVCLLNNFYPREAKVQWKVDNALQSGNSQESVTEQDSKDSTYSLSSTLTLSKADYEKHKVYACEVTHQGLSSPVTKSFNRGECGGGGSGGGGSASHVKLQESGPGLVQPSQSLSLTCTVSGFSLTDYGVHWVRQSPGKGLEWLGVIWSGGGTAYNTALISRLNIYRDNSKNQVFLEMNSLQAEDTAMYYCARRGSYPYNYFDAWGCGTTVTVSSGGGGSGGGGSGGGGSQAVVIQESALTTPPGETVTLTCGSSTGAVTASNYANWVQEKPDHCFTGLIGGHNNRPPGVPARFSGSLIGDKAALTIAGTQTEDEAIYFCALWYSDHWVIGGGTRLTVLG
notes: IgG-scFv format: the anti-DOTA-Bn scFv C825 is linked to the carboxyl end of the huA33 light chain; also called anti-A33/anti-DOTA-Bn (metal) bispecific antibody
With B1, the Kd turned out to be 63.5 nM, the dissociation rate constant (koff) stood at 0.00581 s⁻¹ and the kon was 91500 M⁻¹ s⁻¹.

B2: huA33-IgG1 (monospecific humanized antibody A33) (antibody, V domains shown)
VH: EVQLVESGGGLVKPGGSLRLSCAASGFAFSTYDMSWVRQAPGKRLEWVATISSGGSYTYYLDSVKGRFTISRDNAKNSLYLQMNSLRAEDTAVYYCAPTTVVPFAYWGQGTLVTVSS
VL: DIQMTQSQSSLSTSVGDRVTITCKASQNVRTVVAWYQQKPGKSPKTLIYLASNRHTGVPSRFSGSGSGTEFTLTISNVQPEDFADYFCLQHWSYPLTFGSGTKLEIKR
Consider B2, for which the Kd worked out at 1.71 nM, the koff was 0.00105 s⁻¹ and the kon turned out to be 614000 M⁻¹ s⁻¹.

As usually defined, the koff is the rate constant with which the complex falls apart. A word on the kon: it is the second-order rate constant of association.
